In publication PMC4746636:
Where “and” joins values, the source holds several entries; their conditions need not be identical. Equal entries are not always repeated.

T1: TRF2 (full length, recombinant His6-tagged) (human), Q15554
T1 chain: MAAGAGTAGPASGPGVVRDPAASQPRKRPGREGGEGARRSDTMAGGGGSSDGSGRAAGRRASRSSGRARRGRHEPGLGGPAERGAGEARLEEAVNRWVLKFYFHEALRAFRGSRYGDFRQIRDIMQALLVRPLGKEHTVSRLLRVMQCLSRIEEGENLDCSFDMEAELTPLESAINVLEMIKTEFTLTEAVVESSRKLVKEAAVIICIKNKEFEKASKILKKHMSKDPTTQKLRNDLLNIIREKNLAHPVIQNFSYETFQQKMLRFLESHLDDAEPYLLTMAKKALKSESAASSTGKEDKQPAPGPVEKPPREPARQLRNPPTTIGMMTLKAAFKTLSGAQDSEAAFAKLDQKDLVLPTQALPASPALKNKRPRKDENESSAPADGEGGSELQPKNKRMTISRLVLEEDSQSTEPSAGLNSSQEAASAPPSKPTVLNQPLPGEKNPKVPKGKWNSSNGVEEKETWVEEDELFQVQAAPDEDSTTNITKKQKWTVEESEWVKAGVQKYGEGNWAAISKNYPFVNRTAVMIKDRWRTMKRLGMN

B1: TRF2 (full length, recombinant His6-tagged), Q15554 1-542 (natural protein)
chain: T1 chain

Key:
TRF2 = TRF2 (UniProt Q15554); assay: AFM imaging; settings: N = 126; same conditions as T270; EMSA: 5 nM DNA, 100 nM TRF2, agarose gel; buffer, salt, pH and temperature not given in the material; AFM compaction comparison of TRF2ΔB at 300 nM protein
[1] = target: T1, TRF2 (full length, recombinant …); assay: AFM volume analysis; TRF2 (400 nM, mixed with an equal volume of DNA) incubated with linear T270 DNA (270 TTAGGG repeats) for 30 min in 50 mM HEPES, 150 mM KCl, pH 7.5, diluted 10 fold and deposited on mica; volumes of small DNA-bound complexes (< 500 nm^3); settings: remark: other sources report otherwise
[2] = target: T1, TRF2 (full length, recombinant …); assay: AFM volume analysis; TRF2 protein alone deposited on mica; AFM volume converted to oligomeric state by a calibration curve of volume against molecular weight; monomer to dimer; settings: remark: other sources report otherwise

Molecule	binding signal (% DNA with large complexes) (TRF2)	stoichiometry N [1]	stoichiometry N [2]
DNA with no telomeric sequences	< 8	–	–
B1	–	2 and 4	2
